Protein production data for 17 sequences are collected here from a protein production outcome set (Wang et al. 2014).

The nature of the data set: label from the status in PepcDB records.
Turning to “MPSIIEAKHQGQKQSKNELKQARQSVIEQIQDLVPSSTVTHEYDFLFSGFALELPAHQIPSILGIDGVHAVYPNIEYEVETDFDEVVIEKDAYSPEMLDSAPFIGANDAWEAGYTGEGITVAILDTGVDYTHPDLVHAFGDYKGWDFIDNNDDPQETPPGDPRGIETTHGTHVAGTVAANGLIKGVAPDANLLAYRVLGPGGRGSTAGVIAGIERAVQDGADIMNLSLGNTLNDPDFATSIALDWAMAEGVVAVTSNGNSGPNNWTVGSPGTSRDAISVGATRLPYNKYKASVFTSDGIDYPSADIMGFPSDEELLELDGETYEYAFAGLGKPGDFEGVDVEGKIALIVRGEIPFVEKAENAKAAGAVGAIIYNNVAGVQPTVPGLAIPTIMLSNEDGLKMRNELENGQNTVTFSIEFDKLVGETVADFSSRGPVMHTWMIKPDVSAPGVAIVSTIPTHQPDDPYGYGSRQGTSMASPHVAGAAALLLEAHPNWGVDHVKAALMNTAENLVDENGNRYPHNTQGAGSIRIVDAIESETLVTPGSHSFGTFTKERGKQVERQHFTIHNLSNKRKTYQFDVQFAGNPDGIKVKTSKNLRVQPGKTQKINFNVQVDARKLDPGYYEGTIIVSDGSQTVEVPTILFVSEPDYPRVTTFDLDIDENGVLFGSAYLPNGAEEFGLWIYTRDTLEYVTSAAVVQNIGKGYHDVTWDTTELAPGRYYVFAYAERLGKTDFVLGDEIVVKLEHHHHHH”, the protein production entry is on record as “failed”. For “EVTGSVSLEALEEVQVGENLEVGVGIDELVNAEAFAYDFTLNYDENAFEYVEAISDDGVFVNAKKIEDGKVRVLVSSLTGEPLPAKEVLAKVVLRAEAKAEGSNLSVTNSSVGDGEGLVHEIAGTEKTVNIIE”, the protein production result is listed as “not failed”. For the sequence “ELAWLVDCLAPIFDGLRQPVTVVDPSGRFVYYNRASGLLDGLDPQRALGMHLLQSAPWLAAEQSTLLRCLAEGRPSIDTLQAYVGAGGELLQYRHRAIPLRGRDGCLLGAMEL”, the protein production result was “failed”. Consider “MKELSLFLQNRSVRRVGVFILIAFVLYLLRSQMNIILLTFIFSYLITRLENFILRRISIYRQIIVLLLYVLIAAVIIFVFVKYIPVLADQINQLVKFGNTFLTTDSNNDFINYIVSLANQFDIMKYTEQGVSMILTYLTNVGTVLMNVFIALMLSLFFSLGKEHLVSFTNQFSTSKIGFIYEEVKFFGSKFVATFGKVIEAQFIIALVNAILTTIALWILGFPQLMTLSIMVFLLGLIPVAGVIISLVPLTIIGYSIGGVEYIFYILVVVIIIHALESYVLNPKLMSAKTNLPVFYTFIILIFGEHFFGIWGLIVGIPVVMFFLDVLGVTNQEEIEQPKDTISHT”, for which the protein production result is on record as “failed”. For the sequence “MSRILVLAVVALALLNPLFLVVHSLPTGVSAHDGPIYTNAVLGYANITSLQAYNSSFNVPYGASLQLNVVLEATSTNGNTYYFWLQNVAQFVTNESLMCFTDNVWNYTTATAEISNVTGNGGIGFTYNILFGHPTFYGYSTEPMPYRFPLALYLLINESLSSNGVIVNFIYVVLQNGSLVPPHPVTYDSVFIPVPDPQSAYIIVNDSLTPSAVVLNFTLFYQEALGNLMDTELVWGGYENGEFTTFTQMSSYLGLFYLSGNSFVPFSTVYTYGNDTAESTGDLYVSIASNGDAYVTVGTPDYGLLTDSFHPYIPGFTFVNVTSKVPFLVNGTYTNSFVGYVVHPVTITFYRNYTVNSSSYAVLDYPSQSLTITPSNTFKNVIITPQYTYYYKVIVNSSRPLLLNISGKETLTNGTLWLPQGTSVSLVNNTYYVSSGERFVVNNTYPNLPLTVENPTTITVTLEKQFKLTINSPIPLLLSINGKSRLFNGTTWVLQGSAVELVNNTYYVSSGERYVVSSISPSTPIEVSGPMNISVELVKEYKVEIVSSQPVMATIKGETEPVNGTAWLPQGSVIHLTANLPVYLKGYFVGTYNASPGEQVTINGPIYEKLVVQLNYTFLEELVIPIVTAVVIVVAITRRR”, the protein production entry was “failed”. On to “MAVTPVLACYRTCDAAIGGITAWQVTTGPDGPRTNVVGSCPLGDASWVTPLYHLVVVLCERDGTLVVVHPGREFQVVGTVQLKGQWPCHGAVDPTGRLMAVADYASGQVEFVDLSDPTRPTVRNVLDLGQGCVFPRPVADRQEGPHAHQVTWLDRAHLAVTDLGADRINVVRWSEAGPEIIGSLKTPAGCGPRHLTLTEDGRKQILTVGGALSGTVSTWSRPTGHDMWAREWRFVQETASSRWSHTGSQERRSACTPASPSAIVTTPDGRHFVANRSVGSIGILGGRFGRINLIDEFDTTGANPRDITVTTQNGTRVWVALPEEGQIAIHLRDEDTGGWQVETTIDQPGAMRVIVGPTTG”, for which the protein production result is recorded as “failed”. Consider “MALQSSVRAFKKPPRPLVDEVRFLRSWIEKPLHMGAVMPSGKLLARTMARYVDIQSDGPVIELGPGTGAITNALVEHGVDQKRLVLLEFDPGFCALLRERFPLAKVVQGDAYRLRDSLWDALEIPATAVVSGLPLVTKPMLTRMKLIRDAFTLLEPGAPFVQFTYSVAPPIPKSLPGVSTEGSERIWMNVPPARVWVYRKRLEHHHHHH”, for which the protein production result is “failed”. Regarding “TIDSNFQNKVDEILQRNYSQIVKTIGPYSENAYVVAMNPQTGAILAMSGFHHDLATGEVTPNPLAPILNSEVPGSVVKAGTLTAGYETGVIKGNDVLTDEAILLAGSNPKASWWNASGGTTMQLTAEQALEYSSNAYMMKLVFKMMGVNYYPNMIFPYEVGDDTVFKELRKAFAEYGMGTKTGIDIPGETTGIQNKDFKDSSSAPQGGNLLDLSFGQYDTYSALQLAQYVSTVANNGIRVQPHVVEGIYGNDENGALGKILKEIEPKVLNKVNISEDQIGILQQGFYNVVNGTSPFTTARGLKSDKFSIAAKTGTAETQATDANGVNHTTVNSNLVAYAPYENPEIAISVVLPHLNDEASKPNQTIAKEVLEAYMEMYKK”, the protein production result is listed as “failed”. For the sequence “MANPNEAYRHYMKKLSYETDIADLSIDIKKGYEGIIVVDVRDAEAYKECHIPTAISIPGNKINEDTTKRLSKEKVIITYCWGPACNGATKAAAKFAQLGFRVKELIGGIEYWRKENGEVEGTLGAKADLFWNMKKESLEHHHHHH”, the protein production result is “not failed”. Take “MLSINPNEQTEKDNYKLLTGSIIPRPVAFVTSVTKEGVLNGAPYSYFNIVAANPPLISVSVQRKAGERKDTSRNAIEKGEFVVHISDESYVAAINETAANLPPNESEIELAKLTPIESEVISVPGVKEANIRMECVLERAIPLGGTEDSPACDLLIGRVVRFHVAEHLYEKGRIHAEGLKPISRLAGHNYAKLGEQFELVRPI”: the protein production entry is “not failed”. For “MPDTKIVDANNKFGFKLFSEIAKQDGNAKNISVSPTSVAIALAMTYNGASGSTQKAMAKTLELQGISLPELNSGYASLNKLLQNPGENVQLTIANSLWVNQDVSLRPDFVQTTRDFYQAKVTNLDFQNVTAVNTINSWVQENTKGKIDKIVDNIEPNQALFLINAIYFNGKWSNAFDKSQTTPQTFYTASGQQKQHPMMSQTGEYRYYETPQFQSVSLPYGQDGKVSLYIFLPTKNSNLKAFSQNLNAENWEKWMPQFRNREGSIRLPRFQTDYDITLNDALKSLGMAEAFSNKANFSGIGDNLTISQVRHKTVIEVNEEGTEASAATSVGMVATSLREPQQPFKMIVDRPFFYAIRDNQSKNILFMGAVVEPN”, the protein production result was “failed”. Regarding “MRETFADDLRSLHNKLIEMGRLTEVALQQAIEAFQTQNKNLAMAVIDGDGSIDKLEEEVNDFALWLIAKQQPVATDLRRIVAAIKIASDIERIADFAVNIAKACIRIGGQPFVMDIGPLVLMYRLATDMVSTAIAAYDREDASLAAQIADMDHRVDEQYGEMMKSLLEVEKTDKETLAQMNVLALVARYIERTADHATNIAEHLVYLVKGKHYDFND”, the protein production entry is “not failed”. Under “MFPGVFEHLLYQYTSAILSVGFLIFNGLFAVIYNPKKVVGIKGDPDYTFTDITVLIPVYNEVEDIFRKVIKSVSSMGLKFVVVGDGVDQPYRAITEQNGGIFIRLEERRGKRFALSEGMRYIDTRLVLLLDSDTFIDKRSLERMLSYMAEDVGGVSPSIRVWNNGKISYYYANFYEIMSEIVNRATSYFGRTIILSGQCVLYKTSAIRNYVMSNDFTSSKIFNISLKISDDRDLTEYIIERGYKAIKAIDAIAYTKPPENLSQFVKQVVRWTRANYLFFLRSLRDGSLSLRGNLYVFDIIYMNFLPILVIFSLIPLQYPRFDIFNTLSASITSLERLDIFQLILGIPIRAHLPPFDFVLVFILPRVLSIIGGVTFLLVMIKIMEKERGKTLMYGVIALIVQSLASFYSIASMWKQSWSSREKNRKSKK” stands “failed”; under “MQIFLLFLSFAKAIHKIILIYGETAFPTVCSALQIYSLMKLKTLICATTAFWACCSCTSGELSPVDYVDPFIGTGFHGHTYPGATVPFGAVQLSPDTRAGNWDACSGYHYNDTTLKGFSHTHLSGTGCIDLGDILFRPTTLKPDLTTESIYQPAAFSHKDEDASAGYYSVVLKEEGIKAELTVTAHAGMHRYTFSSGKEASIIIDLTHLLDNEYIYEAELEQTAANEITGMRRTRGWTDNQYVYFVAQFSKPFQAIDFIQNKKMVSAGVKLNGTDLQACLSFDNSNGEPVIAKVGLSIVSEKNARENLETEVIGFDFDAVRSAARSAWEQALSAITVKGGNTDDLKNFYTAMYHSMVVPNVVSDVNGEYRRHNMEIGQLPKGKVQYSTFSLWDTFRAWNPLMTLIDTTLVNNMINSFLDIYESSGELPIWPLSAGETGTMIGYHAVSVIADAYMKGIRGFDAEKALEAMVVSSEKNKKGADYYIQNGFIPSNIKKESISCLLEFAYDDWCIARMAQEMGKDDIYQKYIQRSQNYINVFDGNTKFFRPKRMDGNWETPFNPIEIGRAYTEATAWQYRFFVPHDVSGMAQLFGGKKEFITALDSIFTVESDVHGDLVDITGLIGQYVHGNEPSHHIAYLYDYVGQPWKTQEMTRRLLHEMYAPTPEGIIGNEDCGQMSGWYILSSLGIYSVCPGSNEFALTTPLFEKAVVNLANRKTLTILANNPKKNVYITKVELNGQPIDVNFITYAQLMEGGELRFTLSDKPNMERGVSSEASPYSYTKDEVVSIPYVDKDLNLFMDKVTVALATTTKDAEIRYTLDGSEPTEQSALYEQPFELDKTTLIKAKGFKEGLRSSRTLSISATKAELKAALSVNPTQNGTSYKYFEGTYQKVADVEKSPLLESGVMPEPSIKGAKQEDHFGYIFSGLINVPEDGVYTFQTRSDDGSVLYIHDEQVVNNDASHAAIPATGMVALKKGFHPYKLYYFEDYEGEYLSWAWKLPSAEKLAPIPASALFVK”, “failed”.

Regarding “EDFRPVVFVHGLAGSAGQFESQGMRFAANGYPAEYVKTFEYDTISWALVVETDMLFSGLGSEFGLNISQIIDPETLDKILSKSRERLIDETFSRLDRVIDEALAESGADKVDLVGHSMGTFFLVRYVNSSPERAAKVAHLILLDGVWGVDAPEGIPTLAVFGNPKALPALGLPEEKVVYNATNVYFNNMTHVQLCTSPETFAVMFEFINGYKPATT”, the protein production entry is “not failed”. Under “MLGYVWLVEGRELMRWQELCTPAVICVGGVDPSAGAGITADVRTAENMGVRAYTVATAITFQGSGSYRGERWVDSADIIRQIESLSAEMEPAVAKIGLIRDSDTLSLVVDCLKKVFPSIRIVWDPVLRASADSSAGQADRFNLEDITALSRIDFITPNLPEARHLLGCEPDDETLLDFYRRSGVGLVLKGGHAGESVVTDRIVYDGRCEALRLLRGGTGKHGTGCAHSTAFAAALALEQEPFTAAGMAQLYVSRLRERASGLLAMHKDLPVDPVVRLMSEIDLQFITHRQPDLSELEEAEAVCRIGVRWVQLRMKEASDEEMLHTACAVKAVCRHHGALFVVNDRVEIARQVDADGVHLGKEDMAIVEARRILGSNKIIGRTCNTMEDVRRAYAEGADYVGIGPYRYTETKQRLAPVLGLEGYKAIAACMQAEGIRLPAFAIGGIEDADIPLIRDCGIGGIAVSGSLIRKIKKNLEHHHHHH” stands “failed”; under “MYKTIIMPVDVFEMALSDKAVRHAEFLAQQDGVIHLLHVLPGSASFTMSRFTADLRRFEEHLQHEAETRLQTMVSHFSIDPSRIKLHVRFGSVRDMVNELASEINADVVVIGSRNPSISTHLLGSNASSVIRHAHIPVMVVR”, “failed”.
